In US20200181274A1:

Target: CD123 (interleukin-3 receptor alpha) on CD123-positive human AML cells (KG-1a, Kasumi-3, AML patient blasts) (human) (UniProt P26951)
Assay: cell-based or functional assay

Sequence of UniProt P26951 (P26951 19-378): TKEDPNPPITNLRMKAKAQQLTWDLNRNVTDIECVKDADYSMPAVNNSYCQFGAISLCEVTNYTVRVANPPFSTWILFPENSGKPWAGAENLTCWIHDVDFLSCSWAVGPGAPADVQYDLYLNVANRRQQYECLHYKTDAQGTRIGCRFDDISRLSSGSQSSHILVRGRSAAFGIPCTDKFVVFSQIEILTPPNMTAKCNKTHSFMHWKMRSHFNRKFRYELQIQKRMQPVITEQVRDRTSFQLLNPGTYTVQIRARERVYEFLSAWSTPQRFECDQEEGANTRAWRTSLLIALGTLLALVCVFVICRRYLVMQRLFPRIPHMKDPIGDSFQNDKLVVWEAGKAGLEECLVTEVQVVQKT

apoptosis (annexin-V positivity) of CD123-expressing KG-1a cells with AML subject-derived PBMC, 48 hours: 50%
depletion of putative blast cell population in PBMC of 6 AML subjects, 48 hours: 20 to 90%
reduction of putative leukemic blast number in AML PBMC, 9 or 90 ng/mL, 48 hours: 80%
Substance: XmAb14045 bispecific anti-CD123 x anti-CD3 Fab-scFv-Fc antibody (bispecific antibody)
T cell-dependent cytotoxicity (RTCC) against CD123+ KG-1a cells with human PBMC as effectors, EC50: 0.28 ng/mL
T cell-dependent cytotoxicity (RTCC) against CD123+ Kasumi-3 cells with human PBMC as effectors, EC50: 0.01 ng/mL
